Measured values published in publication PMC7954794, “Protein context shapes the specificity of SH3 domain-mediated interactions in vivo” (Nature Communications, 2021).

B1: SHO1 (protein, UniProt P40073 1-367, looked up)
High osmolarity signaling …: MSISSKIRPTPRKPSRMATDHSFKMKKFYADPFAISSISLAIVSWVIAIGGSISSASTNESFPRFTWWGIVYQFLIICSLMLFYCFDLVDHYRIFITTSIAVAFVYNTNSATNLVYADGPKKAAASAGVILLSIINLIWILYYGGDNASPTNRWIDSFSIKGIRPSPLENSLHRARRRGNRNTTPYQNNVYNDAIRDSGYATQFDGYPQQQPSHTNYVSSTALAGFENTQPNTSEAVNLHLNTLQQRINSASNAKETNDNSNNQTNTNIGNTFDTDFSNGNTETTMGDTLGLYSDIGDDNFIYKAKALYPYDADDDDAYEISFEQNEILQVSDIEGRWWKARRANGETGIIPSNYVQLIDGPEEMHR
B2: YSC84 (protein, UniProt P32793 1-468, looked up)
Protein YSC84: MGINNPIPRSLKSETKKAAKVLRSFVKPNQVFGADQVIPPYVLKRAKGLAIITVLKAGFLFSGRAGSGVIVARLKDGTWSAPSAIAMAGAGAGGMVGVELTDFVFILNSEEAVRSFSEFGTITLGGNVSVSAGPLGRSAEAAASASTGGVSAVFAYSKSKGLFAGVSVEGSAILERREANRKFYGDNCTSKMILSGRVKVPPAADPLLRILESRAFNFTRHDHDDNASGDDFYDDGQYSDNTSHYYDDIPDSFDSTDESSTRPNTRSSRRRGMSLGSRSRYDDDYDDDGYGRGRGYGDFDSEDEDYDYGRSPNRNSSRNRGPQIDRGTKPRANTRWEDDLYDRDTEYSRPNHSGRDYDNTRGNRRGYGRERGYSLGHGPTHPSNMSNVDDLSHKMSKTGLGNESTATNSATPTAVALYNFAGEQPGDLAFKKGDVITILKKSDSQNDWWTGRTNGKEGIFPANYVRVS

System: Abp1 PPIs
Assay: DHFR-PCA of Abp1 SH3-swapped baits (Fig. 2B-D, S2C, S2F);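 on Protein-protein interaction distance between Abp1 SH3-swapped baits, to ABP1: Euclidean distance between DHFR-PCA score profiles of the baits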;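 on Protein-protein interaction distance between Abp1 SH3-swapped baits, to BEM1-2: Euclidean distance between DHFR-PCA score profiles of the baits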;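 on Protein-protein interaction distance between Abp1 SH3-swapped baits, to BOI1: Euclidean distance between DHFR-PCA score profiles of the baits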;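 on Protein-protein interaction distance between Abp1 SH3-swapped baits, to BZZ1-1: Euclidean distance between DHFR-PCA score profiles of the baits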
Assay type: cell-based, Saccharomyces cerevisiae
Conditions: for Protein-protein interaction distance between Abp1 SH3-swapped baits, to ABP1: Abp1 bait with swapped SH3, distance to bait with ABP1 SH3; for Protein-protein interaction distance between Abp1 SH3-swapped baits, to ABP1 / Protein-protein interaction distance between Abp1 SH3-swapped baits, to BBC1 / Protein-protein interaction distance between Abp1 SH3-swapped baits, to BEM1-1 / Protein-protein interaction distance between Abp1 SH3-swapped baits, to BEM1-2 / Protein-protein interaction distance between Abp1 SH3-swapped baits, to BOI1 / Protein-protein interaction distance between Abp1 SH3-swapped baits, to BOI2 / Protein-protein interaction distance between Abp1 SH3-swapped baits, to BUD14 / Protein-protein interaction distance between Abp1 SH3-swapped baits, to BZZ1-1 / Protein-protein interaction distance between Abp1 SH3-swapped baits, to BZZ1-2 / Protein-protein interaction distance between Abp1 SH3-swapped baits, to CDC25 / Protein-protein interaction distance between Abp1 SH3-swapped baits, to CTTN / Protein-protein interaction distance between Abp1 SH3-swapped baits, to CYK3 / Protein-protein interaction distance between Abp1 SH3-swapped baits, to DBNL / Protein-protein interaction distance between Abp1 SH3-swapped baits, to FUS1 / Protein-protein interaction distance between Abp1 SH3-swapped baits, to HCLS1 / Protein-protein interaction distance between Abp1 SH3-swapped baits, to HOF1 / Protein-protein interaction distance between Abp1 SH3-swapped baits, to HSE1 / Protein-protein interaction distance between Abp1 SH3-swapped baits, to LSB1 / Protein-protein interaction distance between Abp1 SH3-swapped baits, to LSB3 / Protein-protein interaction distance between Abp1 SH3-swapped baits, to MYO3 / Protein-protein interaction distance between Abp1 SH3-swapped baits, to MYO5 / Protein-protein interaction distance between Abp1 SH3-swapped baits, to NBP2 / Protein-protein interaction distance between Abp1 SH3-swapped baits, to PEX13 / Protein-protein interaction distance between Abp1 SH3-swapped baits, to PIN3 / Protein-protein interaction distance between Abp1 SH3-swapped baits, to RVS167 / Protein-protein interaction distance between Abp1 SH3-swapped baits, to SDC25 / Protein-protein interaction distance between Abp1 SH3-swapped baits, to SHO1 / Protein-protein interaction distance between Abp1 SH3-swapped baits, to SLA1-1 / Protein-protein interaction distance between Abp1 SH3-swapped baits, to SLA1-2 / Protein-protein interaction distance between Abp1 SH3-swapped baits, to SLA1-3 / Protein-protein interaction distance between Abp1 SH3-swapped baits, to YSC84: sheet Fig2C; for Protein-protein interaction distance between Abp1 SH3-swapped baits, to BBC1: distance to Abp1 bait with BBC1 SH3; for Protein-protein interaction distance between Abp1 SH3-swapped baits, to BEM1-1: distance to Abp1 bait with BEM1-1 SH3; for Protein-protein interaction distance between Abp1 SH3-swapped baits, to BEM1-2: distance to Abp1 bait with BEM1-2 SH3; for Protein-protein interaction distance between Abp1 SH3-swapped baits, to BOI1: distance to Abp1 bait with BOI1 SH3; for Protein-protein interaction distance between Abp1 SH3-swapped baits, to BOI2: distance to Abp1 bait with BOI2 SH3; for Protein-protein interaction distance between Abp1 SH3-swapped baits, to BUD14: distance to Abp1 bait with BUD14 SH3; for Protein-protein interaction distance between Abp1 SH3-swapped baits, to BZZ1-1: distance to Abp1 bait with BZZ1-1 SH3; for Protein-protein interaction distance between Abp1 SH3-swapped baits, to BZZ1-2: distance to Abp1 bait with BZZ1-2 SH3; for Protein-protein interaction distance between Abp1 SH3-swapped baits, to CDC25: distance to Abp1 bait with CDC25 SH3; for Protein-protein interaction distance between Abp1 SH3-swapped baits, to CTTN: distance to Abp1 bait with CTTN SH3; for Protein-protein interaction distance between Abp1 SH3-swapped baits, to CYK3: distance to Abp1 bait with CYK3 SH3; for Protein-protein interaction distance between Abp1 SH3-swapped baits, to DBNL: distance to Abp1 bait with DBNL SH3; for Protein-protein interaction distance between Abp1 SH3-swapped baits, to FUS1: distance to Abp1 bait with FUS1 SH3; for Protein-protein interaction distance between Abp1 SH3-swapped baits, to HCLS1: distance to Abp1 bait with HCLS1 SH3; for Protein-protein interaction distance between Abp1 SH3-swapped baits, to HOF1: distance to Abp1 bait with HOF1 SH3; for Protein-protein interaction distance between Abp1 SH3-swapped baits, to HSE1: distance to Abp1 bait with HSE1 SH3; for Protein-protein interaction distance between Abp1 SH3-swapped baits, to LSB1: distance to Abp1 bait with LSB1 SH3; for Protein-protein interaction distance between Abp1 SH3-swapped baits, to LSB3: distance to Abp1 bait with LSB3 SH3; for Protein-protein interaction distance between Abp1 SH3-swapped baits, to MYO3: distance to Abp1 bait with MYO3 SH3; for Protein-protein interaction distance between Abp1 SH3-swapped baits, to MYO5: distance to Abp1 bait with MYO5 SH3; for Protein-protein interaction distance between Abp1 SH3-swapped baits, to NBP2: distance to Abp1 bait with NBP2 SH3; for Protein-protein interaction distance between Abp1 SH3-swapped baits, to PEX13: distance to Abp1 bait with PEX13 SH3; for Protein-protein interaction distance between Abp1 SH3-swapped baits, to PIN3: distance to Abp1 bait with PIN3 SH3; for Protein-protein interaction distance between Abp1 SH3-swapped baits, to RVS167: distance to Abp1 bait with RVS167 SH3; for Protein-protein interaction distance between Abp1 SH3-swapped baits, to SDC25: distance to Abp1 bait with SDC25 SH3; for Protein-protein interaction distance between Abp1 SH3-swapped baits, to SHO1: distance to Abp1 bait with SHO1 SH3; for Protein-protein interaction distance between Abp1 SH3-swapped baits, to SLA1-1: distance to Abp1 bait with SLA1-1 SH3; for Protein-protein interaction distance between Abp1 SH3-swapped baits, to SLA1-2: distance to Abp1 bait with SLA1-2 SH3; for Protein-protein interaction distance between Abp1 SH3-swapped baits, to SLA1-3: distance to Abp1 bait with SLA1-3 SH3; for Protein-protein interaction distance between Abp1 SH3-swapped baits, to YSC84: distance to Abp1 bait with YSC84 SH3
Summary of the method: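 Yeast DHFR-PCA in which Abp1 baits, carrying their SH3 replaced by CRISPR–Cas9 with one of 27 yeast SH3s or human CTTN, HCLS1 or DBNL SH3s, were mated against 575 SH3-associated DHFR F[3] preys plus 40 negative controls. Four tests were run per PPI. Diploids were selected twice (48 h, 30 °C), then grown 4 days on PCA selection media.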

[1] = number of PPIs, difference, Abp1 SH3-swapped with the listed SH3, Fig2D,S2F

Molecule	Protein-protein interaction distance between Abp1 SH3-swapped baits, to ABP1	Protein-protein interaction distance between Abp1 SH3-swapped baits, to BBC1	Protein-protein interaction distance between Abp1 SH3-swapped baits, to BEM1-1	Protein-protein interaction distance between Abp1 SH3-swapped baits, to BEM1-2	Protein-protein interaction distance between Abp1 SH3-swapped baits, to BOI1	Protein-protein interaction distance between Abp1 SH3-swapped baits, to BOI2	Protein-protein interaction distance between Abp1 SH3-swapped baits, to BUD14	Protein-protein interaction distance between Abp1 SH3-swapped baits, to BZZ1-1	Protein-protein interaction distance between Abp1 SH3-swapped baits, to BZZ1-2	Protein-protein interaction distance between Abp1 SH3-swapped baits, to CDC25	Protein-protein interaction distance between Abp1 SH3-swapped baits, to CTTN	Protein-protein interaction distance between Abp1 SH3-swapped baits, to CYK3	Protein-protein interaction distance between Abp1 SH3-swapped baits, to DBNL	Protein-protein interaction distance between Abp1 SH3-swapped baits, to FUS1	Protein-protein interaction distance between Abp1 SH3-swapped baits, to HCLS1	Protein-protein interaction distance between Abp1 SH3-swapped baits, to HOF1	Protein-protein interaction distance between Abp1 SH3-swapped baits, to HSE1	Protein-protein interaction distance between Abp1 SH3-swapped baits, to LSB1	Protein-protein interaction distance between Abp1 SH3-swapped baits, to LSB3	Protein-protein interaction distance between Abp1 SH3-swapped baits, to MYO3	further results
B1	8.989	7.412	10.91	30.43	8.152	11.77	14.66	4.878	7.862	24.02	9.013	24.75	4.441	16.07	8.302	29.05	5.64	11.57	11.76	10.66	Protein-protein interaction distance between Abp1 SH3-swapped baits, to MYO5: 10.26; Protein-protein interaction distance between Abp1 SH3-swapped baits, to NBP2: 13.02; Protein-protein interaction distance between Abp1 SH3-swapped baits, to PEX13: 8.672; Protein-protein interaction distance between Abp1 SH3-swapped baits, to PIN3: 9.004; Protein-protein interaction distance between Abp1 SH3-swapped baits, to RVS167: 6.815; Protein-protein interaction distance between Abp1 SH3-swapped baits, to SDC25: 31.28; Protein-protein interaction distance between Abp1 SH3-swapped baits, to SHO1: 0.00; Protein-protein interaction distance between Abp1 SH3-swapped baits, to SLA1-1: 26.8; Protein-protein interaction distance between Abp1 SH3-swapped baits, to SLA1-2: 16.55; Protein-protein interaction distance between Abp1 SH3-swapped baits, to SLA1-3: 11.51; Protein-protein interaction distance between Abp1 SH3-swapped baits, to YSC84: 12.33; PPIs gained by Abp1 - SH3-dependent PPIs gained by Abp1 [1]: 3; SH3-dependent PPIs - SH3-dependent PPIs gained by Abp1 [1]: 1; SH3-dependent PPIs gained by Abp1 (number of PPIs, Abp1 SH3-swapped with the listed SH3, DHFR-PCA, Fig2D,S2F): 1
B2	13.97	14.14	19.6	36.26	16.61	20.04	22.52	11.3	16.58	30.76	17.19	31.42	11.44	23.88	11.3	34.92	12.83	3.911	3.425	9.995	Protein-protein interaction distance between Abp1 SH3-swapped baits, to MYO5: 8.128; Protein-protein interaction distance between Abp1 SH3-swapped baits, to NBP2: 21.76; Protein-protein interaction distance between Abp1 SH3-swapped baits, to PEX13: 7.848; Protein-protein interaction distance between Abp1 SH3-swapped baits, to PIN3: 5.862; Protein-protein interaction distance between Abp1 SH3-swapped baits, to RVS167: 8.283; Protein-protein interaction distance between Abp1 SH3-swapped baits, to SDC25: 36.86; Protein-protein interaction distance between Abp1 SH3-swapped baits, to SHO1: 12.33; Protein-protein interaction distance between Abp1 SH3-swapped baits, to SLA1-1: 33.18; Protein-protein interaction distance between Abp1 SH3-swapped baits, to SLA1-2: 24.17; Protein-protein interaction distance between Abp1 SH3-swapped baits, to SLA1-3: 6.014; Protein-protein interaction distance between Abp1 SH3-swapped baits, to YSC84: 0.00
